Test results taken from publication PMC1616947 (Nucleic Acids Research, 2006).

Target: the molecule itself
Assay: SEC + AUC

B1: MutLΔC20 deletion mutant (domain or fragment, Escherichia coli, UniProt P23367 1-595, looked up)
chain: MPIQVLPPQLANQIAAGEVVERPASVVKELVENSLDAGATRIDIDIERGGAKLIRIRDNGCGIKKDELALALARHATSKIASLDDLEAIISLGFRGEALASISSVSRLTLTSRTAEQQEAWQAYAEGRDMNVTVKPAAHPVGTTLEVLDLFYNTPARRKFLRTEKTEFNHIDEIIRRIALARFDVTINLSHNGKIVRQYRAVPEGGQKERRLGAICGTAFLEQALAIEWQHGDLTLRGWVADPNHTTPALAEIQYCYVNGRMMRDRLINHAIRQACEDKLGADQQPAFVLYLEIDPHQVDVNVHPAKHEVRFHQSRLVHDFIYQGVLSVLQQQLETPLPLDDEPQPAPRSIPENRVAAGRNHFAEPAAREPVAPRYTPAPASGSRPAAPWPNAQPGYQKQQGEVYRQLLQTPAPMQKLKAPEPQEPALAANSQSFGRVLTIVHSDCALLERDGNISLLSLPVAERWLRQAQLTPGEAPVCAQPLLIPLRLKVSAEEKSALEKAQSALAELGIDFQSDAQHVTIRAVPLPLRQQNLQILIPELIGYLAKQSVFEPGNIAQWIARNLMSEHAQWSMAQAITLLADVERLCPQLVKTP
- stoichiometry N: 2
